Measurements reported in patent US7608691B2, “Antibodies against IL-16 antagonist peptides” (Trustees of Boston University, priority 1999, dated 2009).
Where a chain is given by its changes, count along the chain named.

B1: C-12: rIL-16 mutant with deletion of 12 C-terminal residues, retaining the RRKS motif (protein)
chain: SAASASAASDVSVESTAEATVCTVTLEKMSAGLGFSLEGGKGSLHGDKPLTINRIFKGAASEQSETVQPGDEILQLGGTAMQGLTRFEAWNIIKALPDGPVTIVIRRKS
B2: C-16: rIL-16 mutant terminating at Ile^105, deleting RRKS and succeeding downstream residues (protein)
chain: SAASASAASDVSVESTAEATVCTVTLEKMSAGLGFSLEGGKGSLHGDKPLTINRIFKGAASEQSETVQPGDEILQLGGTAMQGLTRFEAWNIIKALPDGPVTIVI
B3: N-12: rIL-16 construct with deletion of 12 N-terminal amino acids (protein)
chain: VESTAEATVCTVTLEKMSAGLGFSLEGGKGSLHGDKPLTINRIFKGAASEQSETVQPGDEILQLGGTAMQGLTRFEAWNIIKALPDGPVTIVIRRKSLQSKETTAAGDS
B4: N-22: rIL-16 construct with deletion of 22 N-terminal amino acids (protein)
chain: TVTLEKMSAGLGFSLEGGKGSLHGDKPLTINRIFKGAASEQSETVQPGDEILQLGGTAMQGLTRFEAWNIIKALPDGPVTIVIRRKSLQSKETTAAGDS
B5: Arg^107 alone: rIL-16 point mutation Arg^107 to alanine (protein)
chain: SAASASAASDVSVESTAEATVCTVTLEKMSAGLGFSLEGGKGSLHGDKPLTINRIFKGAASEQSETVQPGDEILQLGGTAMQGLTRFEAWNIIKALPDGPVTIVIRAKSLQSKETTAAGDS
B6: Arg^106 plus Arg^107: rIL-16 point mutation Arg^106 plus Arg^107 to alanine (protein)
chain: B5 chain with R106A
B7: Arg^106 alone: rIL-16 point mutation Arg^106 to alanine (protein)
chain: B5 chain with R106A, A107R
B8: native rIL-16: Recombinant human IL-16, 121 C-terminal amino acids of pro-IL-16, produced in E. coli (protein)
chain: B5 chain with A107R

Assays:
IL-16 = target: T1, IL-16 (Homo sapiens, UniProt Q14005); experiment: Modified Boyden chamber chemotaxis assay: inhibition of IL-16-stimulated T lymphocyte motility; type: cell-based; conditions: human T lymphocytes; rIL-16 10^-9, 10^-10 or 10^-11 M; peptide 10 μg/ml; 4 h
T1 construct: Recombinant human IL-16 corresponding to the 121 C-terminal amino biologically active cytokine cleaved from natural pro-IL-16; polyhistidine (pET-30 LIC) (N, cleaved yes); made in house; host or cells: E. coli
T1 sequence (Q14005 1212-1332): B5 chain with A107R
Description: (§1) The mononuclear cell layer was washed with medium 199 (M. A. Bioproducts, Walkersville, Md.) supplemented with 0.4% bovine serum albumin, 25 mM HEPES buffer, and 100 U/ml of penicillin and 100 μg/ml streptomycin (M199-HPS). Samples were enriched for T lymphocytes by nylon wool adherence as described (Julius, et al., Eur. J. Immunol. 3:645, 1973). The nonadherent cells were >95% CD3^+ as determined by flow cytometry.
Recombinant human IL-16 corresponding to the 121 C-terminal amino biologically active cytokine cleaved from natural pro-IL-16 was produced in E. coli as a polyhistidine fusion protein using the expression vector pET-30 LIC (Novagen, Madison, Wis.). Following lysis of transformed bacteria, the protein was purified by metal chelation chromatography and the N-terminal polyhistidine tag was removed by cleavage with enterokinase.
A series of oligopeptides derived from the 16 C-terminal of human IL-16 residues were prepared (FIG. 1) and tested for their ability to […] the T lymphocyte motility using a modified Boyden chemotaxis chamber assay.
Human T lymphocytes were loaded in the upper wells, and rIL-16 at concentrations of 10^−9 M, 10^−10 M or 10^−11 M was loaded in the lower wells, in the presence or absence of two 8-mer peptides corresponding to amino acids Arg^106 to Lys^113 (SEQ ID NO:24), and Glu^114 to Ser^121 (SEQ ID NO:46) of IL-16. […] To further define the residues mediating inhibition, the eight residue sequence from Arg^106 to Lys^113 was divided into RRKS (SEQ ID NO:2) and LQSK (SEQ ID NO:48).

Leu 3a mAb = experiment: Chemotaxis assay: T cell migration in response to anti-CD4 mAb Leu 3a with peptide; type: cell-based; conditions: Leu 3a 0.5, 1.0, 5.0 μg/ml; peptide 10 μg/ml
Description: (§2) Cells were suspended (5×10^6 cells/ml) in M199-HPS and loaded into the upper wells, separated by an 8 μm pore size nitrocellulose membrane from lower wells. […] After a 4 h incubation at 37° C., the membranes were removed and stained with hematoxylin, dehydrated by sequential washes in ethanol and propanol, then washed in xylene to clarify the filter for cell counting by light microscopy. Cell migration was quantified by counting the number of cells in the filter that had moved beyond a depth of 50 μm in five separate fields in duplicate wells for all conditions. Cell counts were compared with unstimulated control cell migration which was normalized to 100%. Results are expressed as mean % control migration and the data analyzed for statistical significance (P<0.05) by Student=s t test.

[1] = target: HIV-1 gp120 (strain HIV-13B) (Human immunodeficiency virus type 1 group M subtype B, UniProt P04578); conditions: gp120 0.5, 1.0, 5.0 μg/ml; peptide 10 μg/ml
Description: as §2

[2] = target: T2, natural and recombinant human IL-16 (Homo sapiens, UniProt Q14005); conditions: cited from earlier work
T2 sequence (Q14005 1212-1332 limits assumed): B5 chain with A107R

murine IL-16 = target: T3, murine IL-16 (Mus musculus, UniProt O54824); conditions: cited from earlier work
T3 sequence (O54824 1205-1322 T1262D/E1263R/Q1264T limits assumed): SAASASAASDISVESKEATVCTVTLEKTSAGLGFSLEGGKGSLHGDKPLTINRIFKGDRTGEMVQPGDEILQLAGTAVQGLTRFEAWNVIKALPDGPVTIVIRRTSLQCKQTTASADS

human T lymphocytes = experiment: Chemotaxis assay: chemoattractant activity of mutated rIL-16; type: cell-based; conditions: 10^-8 to 10^-11 M
Description: as §1
The native IL-16 expression vector (pET-30/L-16^121) was used as a template for PCR mutagenesis to create four recombinant IL-16 (rIL-16) mutant constructs with progressive four amino acid deletions at the C-terminus (C-4 to C-16), as well as deletions of 12 or 22 N-terminal residues. Two double deletion constructs lacking the first 12 or 22 N-terminal residues as well as the last 16 C-terminal residues of IL-16 were also produced. Point mutations in C-terminal residues of rIL-16 were generated by site-directed mutagenesis using the Stratagene Quick Change Kit (Stratagene, La Jolla, Calif.) according to the manufacturer=s specifications. The point mutations included alanine substitution for Arg^106, Arg^107, and Arg^106 plus Arg^107.
IL-16 mutant constructs were created with progressive deletions of 4 C-terminal amino acids from C-4 through C-16 (FIG. 4). The C-12 construct terminates at Ser^108, retaining the RRKS motif. The C-16 construct terminates at Ile^105, deleting RRKS and succeeding downstream residues. These mutant IL-16 molecules were tested in chemotaxis assays.

[3] = system: Mixed Lymphocyte Reaction; experiment: Inhibition of the one way mixed lymphocyte reaction (MLR); type: cell-based, human; conditions: for capacity to inhibit the MLR: responder T lymphocytes pre-treated, 10^-8 to 10^-11 M
Description: Stimulator cells for mixed lymphocyte reactions were prepared by incubating PBMC (10^6/ml) with 25 μg/ml mitomycin C for 30 min. The cells were then washed four times with RPMI 1640 medium supplemented with 25 mM HEPES buffer, 100 U/ml penicillin, and 100 μg/ml streptomycin (RPMI 1640-HPS), then resuspended in RPMI 1640-HPS supplemented with 10% fetal bovine serum (complete medium) at 10^6 cells/ml. Responder cells were prepared from an unrelated donor, suspended in complete medium at 10^6 cells/ml, and pre-incubated (1 h, 37° C.) with control buffer, or with rIL-16 or mutated rIL-16 constructs (10^−9 M to 10^−11 M). Stimulator cells were then added (1:1) and the cell mixtures were transferred in quadruplicate to 96-well round-bottom plates. Cell cultures were pulsed with [^3H] thymidine on day 5, harvested with a Titertek cell harvester, and counted in a Becton Dickinson scintillation counter on day 6. Results are expressed as mean % cpm above background. SEM.
To determine whether other biological activities of IL-16 are mediated by the C-terminal domain, the native and mutated rIL-16 constructs were tested for their capacity of inhibiting the one way MLR. Responder T lymphocytes were pre-treated with rIL-16 or control buffer, then cultured with mitomycin C-treated stimulator PBMC from an unrelated donor. Pre-treatment with 10^−8 M native rIL-16 reduced thymidine incorporation on day 6 by nearly 70%, compared with untreated cells.

Molecule | inhibition of IL-16-stimulated T cell migration (IL-16) | chemoattractant activity of mutated rIL-16 (human T lymphocytes) | further results
ETTAAGDS [SEQ ID NO:46] | only the Arg^106 to Lys^113 peptide (SEQ ID NO:24) inhibited IL-16 |  | 
LQSK | Only RRKS (SEQ ID NO:2) inhibited IL-16 chemoattractant activity |  | 
RRAS | inhibited IL-16 as effectively as the native RRKS |  | 
RRKA | inhibited IL-16 as effectively as the native RRKS |  | 
RRKS | inhibited IL-16 chemoattractant activity |  | blocking of cell migration in response to divalent anti-CD4 mAb Leu 3a (Leu 3a mAb): not blocked; blocking of cell migration in response to HIV-1 gp120 [1]: not blocked
RRKSLQ | inhibited IL-16-stimulated T cell migration |  | 
RRKSLQSK [SEQ ID NO:24] | inhibited IL-16 |  | 
RRKSLQSKETTAAGDS [Arg106 to Ser121, synthetic oligopeptide corresponding to the 16 C-terminal amino acids of human IL-16] |  |  | inhibition of chemoattractant activity of natural and recombinant human IL-16 [2]: inhibit the chemoattractant activity; inhibition of chemoattractant activity of murine IL-16 (murine IL-16): inhibit the chemoattractant activity
RSQRLK [SEQ ID NO:47, reference compound] | no inhibitory activity |  | 
B1 |  | active as native rIL-16 | 
B2 |  | completely eliminated the chemoattractant activity | shift of the dose response of MLR inhibition versus native rIL-16 [3]: ~1 log; capacity to inhibit the MLR [3]: nearly as active as native rIL-16
B3 |  | comparable to native IL-16 | capacity to inhibit the MLR [3]: reduced but not eliminated
B4 |  | comparable to native IL-16 | capacity to inhibit the MLR [3]: reduced but not eliminated
B5 |  | completely abrogated chemoattractant activity | 
B6 |  | completely abrogated chemoattractant activity | 
B7 |  | retained full activity | 
B8 |  |  | reduction of thymidine incorporation in MLR compared with untreated cells ([3]; pre-treatment with 10^-8 M, day 6): ~70%
